Measurements reported in article PMC8352940 (2021).
Substitutions are numbered along the chain they refer to.

B1: nCoVmab2 (antibody, V domains shown)
VH: EVQLVQSGGGVVQPGRSLRLSCAASGFTVSSNYMSWVRQAPGKGLEWVSVIYSGGSTYYADSVKGRFTISRDNSKNTLYLQMNSLRAEDTAVYYCARGDGSDDYYYGMDVWGQGTTVTVSS
VL: QAVLTQPSSVSGAPGQRVTISCTGSSSNVGAGYDVHWYQQLPGTAPKLLIYGNSNRPSGVPDRFSGSKSGTSASLAITGLQAEDEADYYCQSYDSSLSGSVFGGGTKLTVL
B2: nCoVmab1 (antibody, V domains shown)
VH: B1 VH with E1Q, Q6E, V11L, R16G
VL: QSVVTQPPSVSGAQGQRVFISCTGNGANIGMGYDVHWYQQLPGRAPKLLIFGNTNRPSGVPDRFSASRSGTSASLAITGLQTADEADYYCQSYDGNLRASVFGGGTKLTVL

Biological target: SARS-CoV-2 RBD without the Fc fragment (SARS-CoV-2, UniProt P0DTC2 319-541)
Experiment: BLI

Binder | koff
B1 | 4.95e-05 s⁻¹
B2 | 1.01e-05 s⁻¹
